{"source": "paper PMC6862768", "about": "(Nature, 2019)", "biological_target": "the molecule itself", "test": "cryo-EM structure", "data": [{"protein": "full-length chicken STING, cGAMP-bound (natural protein, UniProt E1C7U0 1-379, looked up) MPQDPSTRSSPARLLIPEPRAGRARHAACVLLAVCFVVLFLSGEPLAPIIRSVCTQLAALQLGVLLKGCCCLAEEIFHLHSRHHGSLWQVLCSCFPPRWYLALLLVGGSAYLDPPEDNGHSPRLALTLSCLCQLLVLALGLQKLSAVEVSELTESSKKNVAHGLAWSYYIGYLKVVLPRLKECMEELSRTNPMLRAHRDTWKLHILVPLGCDIWDDLEKADSNIQYLADLPETILTRAGIKRRVYKHSLYVIRDKDNKLRPCVLEFASPLQTLCAMSQDDCAAFSREQRLEQARLFYRSLRDILGSSKECAGLYRLIAYEEPAEPESHFLSGLILWHLQQQQREEYMVQEELPLGTSSVELSLQVSSSDLPQPLRSDCP", "values": [{"measurement": "stoichiometry N", "value": 2}]}]}
